Source: IntAct's records for PubMed 10398681

B1: Protein TRANSPORT INHIBITOR RESPONSE 1 (Arabidopsis thaliana (Mouse-ear cress)), Q570C0 (parent)
chain: MQKRIALSFPEEVLEHVFSFIQLDKDRNSVSLVCKSWYEIERWCRRKVFIGNCYAVSPATVIRRFPKVRSVELKGKPHFADFNLVPDGWGGYVYPWIEAMSSSYTWLEEIRLKRMVVTDDCLELIAKSFKNFKVLVLSSCEGFSTDGLAAIAATCRNLKELDLRESDVDDVSGHWLSHFPDTYTSLVSLNISCLASEVSFSALERLVTRCPNLKSLKLNRAVPLEKLATLLQRAPQLEELGTGGYTAEVRPDVYSGLSVALSGCKELRCLSGFWDAVPAYLPAVYSVCSRLTTLNLSYATVQSYDLVKLLCQCPKLQRLWVLDYIEDAGLEVLASTCKDLRELRVFPSEPFVMEPNVALTEQGLVSVSMGCPKLESVLYFCRQMTNAALITIARNRPNMTRFRLCIIEPKAPDYLTLEPLDIGFGAIVEHCKDLRRLSLSGLLTDKVFEYIGTYAKKMEMLSVAFAGDSDLGMHHVLSGCDSLRKLEIRDCPFGDKALLANASKLETMRSLWMSSCSVSFGACKLLGQKMPKLNVEVIDERGAPDSRPESCPVERVFIYRTVAGPRFDMPGFVWNMDQDSTMRFSRQIITTNGL

Variants of: B1
Conditions: with skp1b_arath SKP1B

effect of a mutation on the interaction | Variant
decreasing interaction | P10A
